These results are taken from the DeepSol protein solubility set.

This series is described as follows: soluble on expression in E. coli; label from the status in PepcDB or PDB records.
On to “MDSDLKKVQKNSDQKQVSKSKTATAPTEPFNSKATELPSILKPKFPSDKVLKKKKSGDMFDLVGQIVIDIVDDNPDDDDRQDEATTVDTVQEGIGATVDVTLVEDVAEKAHEPASTPNVADRLQKPVAKDDNSAPVEEANRKKKEGKDPKNSEEAKKNSKKGKNGTARRSALKGVTIPPVAASLPCPPPPPPLSERKKNVGPKPCVGPAQKNLSSQRKHSSKRNRKGLLRNVAKLWGRKSDGIANPTKAMLSKKYVPPDYGVNPVDFMPDLECYFSKNDITVRDKNKCSKGEVFVEKLPFWLARLPSDDDIPKAQIQAHRPLKQAFEGNPSLLLPKCPRTLPFCEPDSDTLEKFKQVDKQMGTDVPEQASKRLCTNTFYGTLMFEKDKSASEEVKKKKEEPKLKSLGEESKLETKPKPYDFLQKKSTKTTGERGRQKPQLQKVPPQKLETGANVQKVKKMSARGLKVEMYYKLAEKNEAETSDVSILIDGHKRKFAVICNGIGREMVDLHYDSKKFPRIFSRERHLYVMFSESTSDGFRLTFGATEREQFLRIMHSLGCLLDTAIVKFSQQSSSSQPPPMRRDSTAVFNNSYNQYTSFQQASQPRVFSTIKLELSGDSCNSAFQPSQPTGFPDNQLLTIKKSSSNQISLSVEVADKCIQTEDLVDLLADDEYCMRKALRKMIENPSFIKAVAAAENTLQYIPQAEQEGLEDVTEPPINDIFFDRFHQPQLEQHDSVPED”, for which the “soluble on expression in E. coli” value is “soluble”.

In the case of “MAHHHHHHMSTNRVATVVAGLDGANPVKRERHPAWYPPLKLDGNGLKVMNSLTETLEDFAPRDGRVVRWYTCGPTVYDLSHMGHARAYLTFDIIRRIMEDYFGYSVIYQMNITDIDDKIIKRARVNKLLVDFKEEELRHSDVAKLMAFTAEAVAAAESGLAKRKAALVEPIAKGTNSRAKADREEKLLEVQLKESQLVETKVKIAAAKDDFAALFAAASGVNGDLLDERSGHSVSDQQIFEDHARKYERAFFEDMQRLGIREPDIVTRVTEYVPQVVEFVQKIIDNGFAYAGETSVFFDTEAYIRAGHDYPKLKPGGDRNTTEDEMAEGEGVLSKGIEGEKRSPNDFALWKFSKPGEPRWPSPWGEGRPGWHIECSVMASDILGENMDIHSGGWDLKFPHHDNECAQSEACNLHSQWVNYFLHCGHLHIKGLKMSKSLKNFITIRQALDELGVTARTMRLLFLANPWNKPMNFSDQSLDEAKEKERVLRAFFGSVDIVLRADNWKATQGVNKHDRELLSKWVEAEAAVHAALQDNFDTVVALQQLMSLVAATNQYLLSGERPSATLVRKVGCYVTKMFRIFGVVEGSDDVGLQKQGSDDGEARFIEVVNTLVRFRDEVRNAAKDHKVVAGFLPLCDKVRDEWLVDAGVRLEDNPAGPTTWKSDEPALLQKELAERRAQQEGDRQRRLANQAETKRKLVEKWRQFTYPPSEYFRRQDEQRVEKKYTAYDDVTGLPTMTAAGEEVSEKEAKKLSKEQAKYAKSYDEFIGKGGVSWIQEQEAELASMVAELEGSK”, the “soluble on expression in E. coli” value is “not soluble”.

In the case of “MKTLIKNGKIIKKENQLIEAALWLENGVIHAIGESFDEADFEQVFDANGQLITPGLVDVHVHFREPGFTYKETIKTGSKAAARGGFTTVCAMPNLNPVPDTAEKLSEVYDLIQKDAVVKVLQYAPITEELRSEVLTNQKALKEAGAFAFTNDGVGVQTAGTMYLAMKEAAALNMALVAHTEDESLLFGGVMHEGEVSKKLGLPGILSATEASQIARDITLAKETGVHYHVCHVSTEESVRVIRDAKKAGIHVTAEVSPHHLILVDEDIPGDEGFWKMNPPLRGLADRQALIDGLLDGTIDCIATDHAPHGLEEKQQSFLNAPFGIVGSETAFQLIYTNFVETGIFTLEQVIDWMAVKPAEIFGLNAGTLTIGAPADIAVFDLATAAPIDAEAFESMAVNTPFTGWTVKGKTLMTFVDGALAWSEEAQ”, the “soluble on expression in E. coli” value is “not soluble”.

For the sequence “MGSDKIHHHHHHMTEMNHSVPDDMLMGYASGSLAKAFDLVLATHVSLNDDARARLETFEALGGAILCGMDTVDVDDDSLEQTMAKIRGNAPIERPAPSEGLFPTPLQSMVGGDVDAVRWRSVGGGVKQCVLHSDDGGTVRLLSIAAGRAMPAHSHHGTEMTLVLQGAYRDDDGIFARGDLELADTDTNHQPVAEPGQDCICLVATNAKLKFQGLLPRIAQPFLGI”, the “soluble on expression in E. coli” value was “not soluble”.

Consider “MAHHHHHHMQRPTTARYRGRRESSAASRKLAKKPHSLMDELPPCPPSPYKWKQHRQHDGHHISVTAAFIRGRRNMRVGAAAISAIAASPFPVDGATKAAKSSPAFPMRALVVAGTHDSDAVEGNNDDEAIFELFFREAQLHYHISAEENMRNHLLAGEEVAFTNLMIEALQARAELLAGDEAAELVIRDAQKRAQERQAMMKEIEKTVALRLHDERMAQLLAMEFEALLPAHGAGCERILREEAADLGEVFRWHKENRPLGAGCFIEAPVEDSRLTDARRGTGAAKFLESRLALAKGSRRASCARSSRVYLAQLLQKGTSSRCSAAALGPLAVAAGEAPASLLDGTLPVMDEALFQEEGRARLQAAKDQRYLALRGLRAVSDIRQAAAAAREKVLAEEAMCWMQIARLEVDGIYAAQEATRERKKREASADAATTHRAAQKKEVKERLLRQRGRPVPEPDNSAGGDARVQPRISGKSTEEGAQPPKDQAAITEAGALEQPSPRSSSSTVPDNSPLCGALAEGASTTAEANVDAVDELAYLRFVTGEITDPDACKQLSALVSSEVDEEVEKAV”, for which the “soluble on expression in E. coli” value is on record as “soluble”.

“MAHHHHHHMRFLKTLFSLNCLASVGFYKKFACKNLFFENSFIRKDLHTYFIDKRKYFHLNKKDICTNTIIIPFYKDNYSYIFYDDKEEGIVVDPADYNIINDISKKENIKIKHVLCTHKHSDHNNGNQYYYEKNINVYGIKEYDNKYINQDISNLTHFQINNFKINIFLSNFHSKNQVSYLIENDNNKSKKNIFFTGDFLFISGIGKNFEQDNEDLYNSINKLKLLDKQNIYIFCGHEYTLDNLKFALTVDSTNKNLLSFYDHVVNSNKNYPTVPTLLEHEYLYNPFLRCDQNDVRKSIDLYAKKKNIKIQQESDYIVILRLMKDNFKAS”: the “soluble on expression in E. coli” value is “not soluble”.

“MLFDLGYVDLQDRSNAEILTHLITKKAILLLGDKQNPADLLAIQDEVQERYLVNFSLFQSMPDFWGLEQNFPIMPLDRLDEEPTRSASIWDITCDSDGEISYSKDKPLFLHDVDVEKENYFLGFFLVGAYQEVLGMKHNLFTHPTEAIISINEKGYEVEGIIEAQSILDTLEDLDYDIHAILEHHHHHH”: the “soluble on expression in E. coli” value is “not soluble”.

Take “MAHHHHHHMADYNAAGADTAVVDDNVPPGITTKQDEIIQYVAKYVVASCDGARYQDKVRTRTKHNPYFDFLNAKHPYHQYYQYLLESYRHWMRNSEAVGAGTWGGGVDATQGQGQQQQWNEEDYYQYYGAYAGQASGIEFQGNAAGQLGEGSSYVDASSSAHARNASSGVDPTSYESEAVTATGYGAGYDPSAVDPEPAQVATTAGGGEAQAEEDEDDEYELVMENGQWVSRKRM”: the “soluble on expression in E. coli” value is given as “soluble”.

Turning to “SSSSVPNSDRKIVTGPAGYILEDVPHFSDDFPDHPTYPNPLQDNAAYSVVKQYFVDEDDTVPQKIVVHPDSPRGTHFRRAGPRQRVYFESDDVLACIVTCGGLCPGLNTVIREIVCGLSYMYGVKRILGIDGGYRGFYARNTIHLDLKTVNDIHRSGGTILGTSRGGHNTTKIVDSIQDRGINQVYIIGGDGSQKGAAAIFEEIRKRKLKVAVAGIPKTIDNDIPIIDRSFGFDTAVEEAQRAINAAHVEATSFENGIGLVKLMGRYSGFIAMHATLASRDVDCCLIPESPFFLEGSGGLFEFIDKRLKESGHMVIVIAEGAGQDLLSESMKESTTLKDASGNKLLQDIGLWISQRIKDHFAKKMTLTLKYIDPTYMIRAVPSNASDNVCCTLLAQSAVHGVMAGYNGFTVGLVNGRHTYIPFNRITEKQNKVVITDRMWARLLSSTNQPSFMKQADKIHSNQLVGEPGTMKW”, the “soluble on expression in E. coli” value is “soluble”.

On to “KETCSTGLYTHSGECCKACNLGEGVAQPCGANQTVCEPCLDSVTFSDVVSATEPCKPCTECLGLQSMSAPCVEADDAVCRCAYGYYQDEETGHCEACSVCEVGSGLVFSCQDKQNTVCEECPEGTYSDEANHVDPCLPCTVCEDTERQLRECTPWADAECEHHHHHH”, for which the “soluble on expression in E. coli” value is “soluble”.

Take “MGSDKIHHHHHHMTDRSSFIDTARQVVLDEARALDALSESLGDGFAEAVELILRTKGRVIVSGIGKSGHIGHKIAATLASTGTPAYFVHPAEASHGDLGMLSGDDVVLAISNSGEAPELANLLAFTRRFAIPLIGLSSKSESSLMQQADVHLLIPALGEACGFGMVPSISTTLTLAMGDALAIALMKYRDFRPENFRVFHPGGKLGARLSRVSDLMHGGEAVPLIAADTPMSEALLEISRKGFGVVGVTDGAGHLAGIVTDGDLRRHMSGLLDKTAAQVMTANPTTIAPDSLAEEAVAIMNARKITSLFVVDPAEPGVARGLLHIHDCLRVGLG”: the “soluble on expression in E. coli” value was “not soluble”.

Consider “MGSDKIHHHHHHMRDNTHSLEGVARLLLRSEAVASSRIEGIAPNSDKVAMAILARESDSEIRGFKESATAVARNVAILDTINADLAYKDELVLDDIVAMQTALVHAQFETIHPFPDGNGRVGRAMIHALLQRRGLTDAAVLPVSMVLATLGDRYVDGLTKFREGDVLAWISFFVEAAQVATTKAAELADSVAALEAEWMDKVNHHRTAQEASCHAFGHGAHREVRTGDFIDKHGPRCSRFTHRRWHST”, for which the “soluble on expression in E. coli” value is listed as “not soluble”.

Consider “LPVTDNHIHVDDKHGYGAEKVAKTFYNAGGKVMIVLNKPTFDGNLTASMDILVRDVEIINKNTPVKAFGLVGVHPAELTYLMKFMSLEEAKQRIVDALNYAKKLVEEYDFIVGIGEVGRPHYPVSEDVWKASNEILKYCMELAKDIGCAIQIHAESSTEEQFKEFSEMAKEVGLNPEKVVKHHCGNMVLEGERYGIFPSILASRVNEDVVKKSLRFVMETDYIDDLKRPGVALGIKTVPRVTRRLIEKGVLDEEGVYKIHKENIERIYDM”, for which the “soluble on expression in E. coli” value is “not soluble”.

As for “MFQKVDAYAGDPILTLMERFKEDPRSDKVNLSIGLYYNEDGIIPQLQAVAEAEARLNAQPHGASLYLPMEGLNCYRHAIAPLLFGADHPVLKQQRVATIQTLGGSGALKVGADFLKRYFPESGVWVSDPTWENHVAIFAGAGFEVSTYPWYDEATNGVRFNDLLATLKTLQAGSIVLLHPCCHNPTGADLTNDQWDAVIEILKARELIPFLDIAYQGFGAGMEEDAYAIRAIASAGLPALVSNSFSKIFSLYGERVGGLSVMCEDAEAAGRVLGQLKATVRRNYSSPPNFGAQVVAAVLNDEALKASWLKEVEEMRTRILAMRQELVKVLSTEMPERNFDYLLNQRGMFSYTGLSAAQVDRLREEFGVYLIASGRMCVAGLNTANVQRVAKAFAAVM”, the “soluble on expression in E. coli” value is “soluble”.

As to “MKTMSEEDSRTASRYAMIREVLRNAIVSGAAAKGLVLLEAPLGELFGTSRVPVRKALNLLHEEGLISRFDGRGYLVNPERQHVEPLRLSLSHKQFGLDSNEELVDTRPLGERIHDEIGAALSACIAFGHYRLDEQSAAQHYGVSRSVVREALMRLRDRGLVEKEPYSQWLAGPLTAREITEDYELRACLEPEALRLTAPQLSRETLEAMLTRVVEAQNAEQCSLEDIERLEEDLHQQCLAGLQNRKIATLISQAQSPMIINRIFYRLLDIGADEAMLAEHRLIIELLLHGAFDAAALNLKEHLQRARQRMLQRLKVLSVLPEQEVPGYLTRLS”, the “soluble on expression in E. coli” value is recorded as “not soluble”.

“MSPEEVKARGWKELDVILVTGDAYVDHSSFGTAIIGRVLEDAGFRVGIIAQPRWENPEDFKKLGKPRLFFSVSAGNTDSMVSNLTPGLKPRNKDAYSPGGKTGLRPNRAAIIYSNRIKEAFPDMPIVLGGIEASMRRFAHYDYLSDKVRQSILADAPADLVVYGMGELQIVEIAKRLQAGEDIKGIRDISGTVWKMEVKAWKELKGKGKEKAGEQDESENATEEVAKDKSLDPAEFFKEYVEIPSFSEVSQDKAVFAKAFRTYFLEQNPVTGKGIVQPHPKTIIIQNKPMRPLTEAELDHVYELPYTGETHPSYTEPVPALEMVKFSLTTHRGCF”: the “soluble on expression in E. coli” value is “not soluble”.
